# Test results published in US20140134169A1, “Methods of Treating Ovarian Cancer with Dll4 Antagonists” (Regeneron Pharmaceuticals, Inc., priority 2012, published 2014).
# B1: REGN421 (antibody, V domains shown)
# VH: QVQLVESGGGVVQPGRSLRLSCAASGFTFSSYGMHWVRQAPGKGLEWVSFLWYDGTNKNYVESVKGRFTISRDNSKNMLYLEMNSLRAEDTAVYYCARDHDFRSGYEGWFDPWGQGTLVTVSS
# VL: EIVLTQSPATLSLSPGERATLSCRASQSVSSYLAWYQQKPGQAPRLLIYDASNRATGIPARFSGSGSGTDFTLTISSLEPEDFAVYYCQHRSNWPPTFGGGTKVEIK
# Tests used:
# SKOV-3 cells = assay: SKOV-3 ovarian xenograft (subcutaneous) tumor growth inhibition; type: in vivo, human; conditions: Humanized Dll4 SCID mice; REGN421 2.5 mg/kg once weekly; 2.5 mg/kg
# Experimental: Ovarian tumor xenograft cells were implanted into humanized Dll4 SCID mice or vendor SCID mice (i.e., SCID mice expressing native murine Dll4). After implantation, mice were treated with REGN421 (anti-human Dll4 antibody, binds to human Dll4), mDll4Ab1 (anti-murine Dll4 antibody, binds to murine Dll4), or a human Fc domain control protein. In one study, mice were treated with VEGF-Trap, mDll4Ab1 or VEGF-Trap plus mDll4Ab1. TOV-112D cells (5×10^6) were implanted subcutaneously into the right flank of humanized Dll4 (n=4) or vendor SCID mice (n=7). Treatment with REGN421 (2.5 mg/kg, 1×/week) or mDll4Ab1 (5 mg/kg, 1×/week) vs. hFc control was initiated one week after tumor cell implantation. Animals were treated for 2 to 3 weeks. A2780 cells (2×10^6) were implanted intraperitoneally into humanized Dll4 or vendor SCID mice (n=4-5). Treatment with REGN421 (2.5 mg/kg, 1×/week) or mDll4Ab1 (5 mg/kg, 1×/week) vs. hFc control was initiated one week after tumor cell implantation. For the A2780 combination study, simultaneous treatment with mDll4Ab1 (5 mg/kg, 1×/week) and VEGF-Trap (10 mg/kg, 2×/week) was initiated one week after tumor cell implantation. A VEGF-Trap single treatment arm was included in this study. Animals bearing A2780 tumors were treated for 4-5 weeks. […] Tumor growth inhibition (TGI) was measured as detailed above.
# [1] = test system: Hey1 gene expression in Colo205 human colorectal tumor cells; assay: Hey1 gene expression in Colo205 tumors in humanized Dll4 SCID mice (microarray); type: in vivo
# Experimental: The effect of anti-hDll4 antibody on differential gene expression in tumors was studied in humanized Dll4 SCID mice implanted with human Colo205 colorectal tumor cells. Briefly, Male and female humanized Dll4 SCID mice were subcutaneously implanted with 2×10^6 Colo205 cells per mouse. When the tumors reached ˜150 mm^3, mice (4 animals per group) were treated with a single dose of REGN421 at 0.5, 5 or 15 mg/kg, or of hFc control at 15 mg/kg. The tumors were excised at 5 hrs, 10 hrs, 24 hrs, 72 hrs and 7 days after the treatment and stored in RNA later stabilization reagent (Qiagen). Tumor RNA was purified using the RNeasy® Midi Kit (Qiagen). Tissue was homogenized in lysis buffer containing […] in a mixer mill, loaded onto the columns and unbound contaminants washed through. DNase I digestion was performed on the column and RNA was eluted in RNase-free water. Cyanine 3 (Cy3)-CTP was incorporated into amplified cRNA from 500 ng of total RNA using the Quick Amp™ RNA Amplification Kit (Agilent Technologies). Cy3-labeled cRNA from each sample was then hybridized to a custom array covering both the mouse and human transcriptome. The hybridization and wash of the arrays were performed according to the manufacture's protocol and arrays were scanned on an Agilent Microarray scanner. The data were extracted from scanned array images using the Agilent Feature Extraction Software 9.5. […]
# human HCT116 tumor cells = assay: Growth of human HCT116 tumors in humanized Dll4 SCID mice (irinotecan study); type: in vivo; conditions: REGN421 2 mg/kg sc (6 mg/kg total)
# Experimental: Each mouse was implanted subcutaneously (sc) with 5×10^6 human HCT116 tumor cells. […] The mice were then treated with hFc, REGN421, irinotecan or combination of REGN421 and irinotecan. A total of 30 mice were divided into 6 groups (n=5 per cohort). The first group was treated sc with hFc at 2 mg/kg; the second group was treated sc with REGN421 at 2 mg/kg; the third and fourth groups were treated ip with irinotecan at 7.5 and 25 mg/kg, respectively; the fifth group was treated sc with REGN421 at 2 mg/kg and ip with irinotecan at 7.5 mg/kg; and the sixth group was treated sc with REGN421 at 2 mg/kg and ip with irinotecan at 25 mg/kg. REGN421 was administered every 3-4 days starting on day 15 and mice received three doses total. Irinotecan was administered every 3-4 days starting on day 15 and mice received three doses total.
# To assess the effects of REGN421 and irinotecan as single agents or in combination treatments, the changes in tumor size (volume) are measured, starting three days before the initial REGN421 treatment, and then on the day of each agent treatment (days 15, 19, 22) and thereafter every 3-4 days until tumors reach ˜600 mm^3 in size. In vivo tumor size is calculated using the formula (length×width^2)/2.
molecule,measurement,setting,value
B1,% TGI,SKOV-3 cells,61%
same,Hey1 mRNA levels compared to control hFc-treated mice,[1]; single dose 0.5 mg/kg (lowest dose),No significant decrease
same,Hey1 mRNA levels compared to control hFc-treated mice,"[1]; single dose REGN421, starting at 10 hours, most significantly at 72 hours and 7 days post-treatment",decreased
same,TGD,human HCT116 tumor cells,9 days
same,TGI(%) at Day 39,human HCT116 tumor cells,81.3%
